Experimental data: patent US20140255405A1 (published 2014)

B1: DVD-45 (bispecific antibody, human IgG1, kappa)
heavy: not shown
light: DIVLTQSPASLAVSLGQRATISCRASESVGNFGISFMNWFQQKPGQPPKLLIYTASNQGSGVPARFSGSGSGTDFSLNIHPMEEDDSAMYFCQQSKEIPWTFGGGTKLEIKSPAPNLLGGPAIQMTQSPSSLSASVGDRVTITCQASQSINNELSWYQQKPGKAPKLLIYRASTLASGVPSRFSGSGSGTDFTLTISSLQPDDFATYYCQQGYSLRNIDNAFGGGTKVEIKRTVAAPSVFIFPPSDEQLKSGTASVVCLLNNFYPREAKVQWKVDNALQSGNSQESVTEQDSKDSTYSLSSTLTLSKADYEKHKVYACEVTHQGLSSPVTKSFNRGEC
notes: Bispecific, tetravalent human IgG1 dual variable domain IgG: variable domains of Mab4 appended to the N-termini of the variable domains of Mab5
B2: DVD-D5 (antibody)
heavy: not shown
light: DTQMTQSPSSLSASVGDRVTITCRASQSISSYLAWYQQKPGKAPKLLIYAASSLYSGVPSRFSGSGSGTDFTLTISSLQPEDFATYYCQQYSSLPYTFGQGTKLEIKSPAPNLLGGPAIQMTQSPSSLSASVGDRVTITCQASQSINNELSWYQQKPGKAPKLLIYRASTLASGVPSRFSGSGSGTDFTLTISSLQPDDFATYYCQQGYSLRNIDNAFGGGTKVEIKRTVAAPSVFIFPPSDEQLKSGTASVVCLLNNFYPREAKVQWKVDNALQSGNSQESVTEQDSKDSTYSLSSTLTLSKADYEKHKVYACEVTHQGLSSPVTKSFNRGEC
notes: Monospecific control: dual variable domain human IgG1 like DVD-45 but with the Mab4 VL replaced by a germline-like dummy VL
B3: Mab5 (antibody, human IgG1, kappa, V domains shown)
VH: EVQLVESGGGLVQPGGSLRLSCAASGFSLSNYYVTWVRQAPGKGLEWVGIIYGSDETAYATSAIGRFTISRDNSKNTLYLQMNSLRAEDTAVYYCARDDSSDWDAKFNLWGQGTLVTVSS
VL: AIQMTQSPSSLSASVGDRVTITCQASQSINNELSWYQQKPGKAPKLLIYRASTLASGVPSRFSGSGSGTDFTLTISSLQPDDFATYYCQQGYSLRNIDNAFGGGTKVEIKR
B4: Mab4 (antibody, human IgG1, kappa)
heavy: not shown
light: DIVLTQSPASLAVSLGQRATISCRASESVGNFGISFMNWFQQKPGQPPKLLIYTASNQGSGVPARFSGSGSGTDFSLNIHPMEEDDSAMYFCQQSKEIPWTFGGGTKVEIKRTVAAPSVFIFPPSDEQLKSGTASVVCLLNNFYPREAKVQWKVDNALQSGNSQESVTEQDSKDSTYSLSSTLTLSKADYEKHKVYACEVTHQGLSSPVTKSFNRGEC
B5: Mab4-5L5H (bispecific antibody, human IgG1, kappa)
heavy: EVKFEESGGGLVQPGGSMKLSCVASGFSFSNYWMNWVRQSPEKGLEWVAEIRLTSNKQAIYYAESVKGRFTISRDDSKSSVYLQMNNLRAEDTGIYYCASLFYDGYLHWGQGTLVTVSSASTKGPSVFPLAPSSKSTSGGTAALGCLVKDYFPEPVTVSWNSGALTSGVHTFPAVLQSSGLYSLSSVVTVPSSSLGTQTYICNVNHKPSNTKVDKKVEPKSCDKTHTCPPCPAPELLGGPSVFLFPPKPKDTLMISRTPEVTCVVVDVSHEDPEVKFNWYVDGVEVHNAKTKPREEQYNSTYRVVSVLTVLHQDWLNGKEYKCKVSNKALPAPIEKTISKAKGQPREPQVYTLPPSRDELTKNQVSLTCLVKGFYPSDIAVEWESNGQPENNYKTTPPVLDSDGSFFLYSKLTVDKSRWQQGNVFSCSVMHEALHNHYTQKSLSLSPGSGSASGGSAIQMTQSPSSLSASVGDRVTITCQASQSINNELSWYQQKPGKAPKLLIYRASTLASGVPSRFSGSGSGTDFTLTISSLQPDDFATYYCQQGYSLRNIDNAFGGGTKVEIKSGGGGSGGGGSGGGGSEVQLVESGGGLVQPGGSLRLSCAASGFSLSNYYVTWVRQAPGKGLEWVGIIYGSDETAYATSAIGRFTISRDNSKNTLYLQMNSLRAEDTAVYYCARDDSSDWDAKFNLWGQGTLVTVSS
light: B4 light
notes: Bispecific, tetravalent human IgG1-scFv fusion: Mab5 scFv (VL-VH) fused to the C-terminus of CH3 of Mab4

Columns and labels:
[1] = target: T1, Human C1q (Calbiochem, 204876) (human, UniProt P02745 23-245; P02746 28-253; P02747 29-245); experiment: ELISA on coated human C1q; preformed complex of antibody and IL6, 11 nM binding sites; anti-human Fc HRP detection
T1 construct: Bought human C1q coated on ELISA plates; also called complement C1q; complement component C1q
T1 sequence (P02745 23-245 limits assumed, chain 1 of 3): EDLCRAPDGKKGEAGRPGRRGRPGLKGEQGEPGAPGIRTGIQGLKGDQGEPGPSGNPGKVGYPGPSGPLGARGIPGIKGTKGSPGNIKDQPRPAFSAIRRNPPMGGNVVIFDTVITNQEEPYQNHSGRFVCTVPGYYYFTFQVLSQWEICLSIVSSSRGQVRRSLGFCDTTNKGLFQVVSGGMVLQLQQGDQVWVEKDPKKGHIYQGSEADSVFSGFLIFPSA
T1 sequence (P02746 28-253 limits assumed, chain 2 of 3): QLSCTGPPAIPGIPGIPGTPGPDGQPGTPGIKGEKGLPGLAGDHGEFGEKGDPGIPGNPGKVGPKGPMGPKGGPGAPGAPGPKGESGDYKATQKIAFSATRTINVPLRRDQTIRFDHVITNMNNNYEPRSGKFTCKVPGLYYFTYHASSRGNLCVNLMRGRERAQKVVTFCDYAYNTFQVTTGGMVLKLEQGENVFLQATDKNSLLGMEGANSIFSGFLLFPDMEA
T1 sequence (P02747 29-245 limits assumed, chain 3 of 3): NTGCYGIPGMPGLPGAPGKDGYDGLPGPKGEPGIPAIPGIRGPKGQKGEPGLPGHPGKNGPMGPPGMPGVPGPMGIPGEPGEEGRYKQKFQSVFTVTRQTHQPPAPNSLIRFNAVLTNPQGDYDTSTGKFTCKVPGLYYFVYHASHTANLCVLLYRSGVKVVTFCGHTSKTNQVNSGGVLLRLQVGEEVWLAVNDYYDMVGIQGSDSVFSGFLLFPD
Protocol: (§1) Determination of immune complex binding to complement C1q was performed using ELISA. Human C1q (Calbiochem, 204876) was coated onto maxisorp ELISA plates (NUNC, Denmark) at a concentration of 16 microgram/ml in a buffer containing 10 mM Tris HCl, pH 8 for 1 h and washed twice with 1× phosphate buffered saline supplemented with 0.1% Tween-20 (Merck KGaA, Germany, 8.17072.1000) (PBST). Plates were blocked with 2% skimmed milk powder (Roth, Germany T145.3) in PBST for 30 min and again washed twice with PBST. The prepared plates were then incubated with a preformed complex of antibody and IL6, at an equimolar IL6 and antibody binding site concentration of 11 nM, or with 11 nM antibody incubated without IL6, for 30 min.

human IL-6 [2] = target: T2, human IL-6 (human, UniProt P05231 30-212); experiment: cell-based or functional assay
[3] = target: T1, Human C1q (Calbiochem, 204876); experiment: ELISA on coated human C1q; antibody preincubated with equimolar IL6 or without IL6; anti-human Fc HRP detection
Protocol: as §1

human IL-6 [4] = target: T2, human IL-6; experiment: inferred from IL6-dependent signal in C1q ELISA; antibody preincubated with equimolar IL6 at 11 nM
Protocol: as §1

Row | Binder | binding result [1] | IC50 on 7TD1 cells (pM) (human IL-6 [2]) | IC50 on B9 cells (pM) (human IL-6 [2]) | binding result [3] | binding result (human IL-6 [4])
1 | B1 | binds | 1.3 | 2.9 | – | –
2 | B2 | – | – | – | no binding (tested: 11 nM) | –
3 | B3 | – | 19.9 | 26.1 | – | –
4 | B4 | – | 2.6 | 8.4 | no binding (tested: 11 nM) | –
5 | B5 | binds | – | – | – | binds
